In article PMC8229081, “A Novel Assay for Phosphoserine Phosphatase Exploiting Serine Acetyltransferase as the Coupling Enzyme” (Life, 2021):

T1: human PSP (phosphoserine phosphatase) (Homo sapiens, UniProt P78330)
T1 construct: gene PSPH
T1 sequence (P78330 1-225): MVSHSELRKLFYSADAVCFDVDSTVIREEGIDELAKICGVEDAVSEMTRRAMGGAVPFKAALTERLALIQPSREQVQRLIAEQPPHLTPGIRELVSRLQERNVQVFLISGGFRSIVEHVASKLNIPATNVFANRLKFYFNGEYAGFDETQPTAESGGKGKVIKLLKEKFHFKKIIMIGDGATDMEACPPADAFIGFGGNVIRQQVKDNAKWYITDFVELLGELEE


Key:
[1] = molecular target: T1, human PSP (phosphoserine phosphatase); settings: 40 µM L-OPS, 15.7 nM PSP, 3 mM MgCl2, pH 7, 37 °C; product inhibition
[2] = substrate: N[C@@H](COP(=O)(O)O)C(=O)O; test: purified protein; assay type: biochemical, Homo sapiens; settings: 50 mM HEPES, 100 mM KCl, 3 mM MgCl2, pH 7, 37 °C, 170 µM acetyl-CoA, 0.5 mM DTNB, 430 mU HiSAT removing product L-serine

| % inhibition at 50 mM [1] [%] | Molecule | Km [2] [µM] | kcat [2] [s⁻¹] | kcat/Km [2] [M⁻¹ s⁻¹] |
| --- | --- | --- | --- | --- |
| 50 | O=P(O)(O)O [phosphate] |  |  |  |
|  | human PSP (phosphoserine phosphatase) (Homo sapiens) (protein, dimer) MVSHSELRKLFYSADAVCFDVDSTVIREEGIDELAKICGVEDAVSEMTRRAMGGAVPFKAALTERLALIQPSREQVQRLIAEQPPHLTPGIRELVSRLQERNVQVFLISGGFRSIVEHVASKLNIPATNVFANRLKFYFNGEYAGFDETQPTAESGGKGKVIKLLKEKFHFKKIIMIGDGATDMEACPPADAFIGFGGNVIRQQVKDNAKWYITDFVELLGELEE | 40.3 ± 2.8 | 44.8 ± 0.9 | 1.11e+06 ± 100000 |
